Substrate in data set [1]: NC(=O)c1ccc[n+]([C@@H]2O[C@H](COP(=O)([O-])OP(=O)(O)OC[C@H]3O[C@@H](n4cnc5c(N)ncnc54)[C@H](OP(=O)(O)O)[C@@H]3O)[C@@H](O)[C@H]2O)c1
Description: purified protein, by the assay type. The note with it: other: gapDH WT, cofactor, 50 mM tris pH 7.5, 340 nm.

Substrate in data set [2]: NC(=O)c1ccc[n+]([C@@H]2O[C@H](COP(=O)([O-])OP(=O)(O)OC[C@H]3O[C@@H](n4cnc5c(N)ncnc54)[C@H](OP(=O)(O)O)[C@@H]3O)[C@@H](O)[C@H]2O)c1
Description: Kinetics and cofactor specificity of triple mutant mGap (mGapDH). The data set is classed as biochemical, G. stearothermophilus ATCC12980. As to conditions: other: mGapDH, cofactor, 50 mM tris pH 7.5, 340 nm. On the procedure:
Enzyme activity and optimization. All of the enzymes used in this work were assayed. The enzymes were assayed in 50 mM tris buffer pH 7.5, 5 mM MgCl, and 5 mM KCl which mirrors the final reaction conditions. The activity of NAD(P)H producing or consuming reactions were monitored at 340 nm. The activity of ATP consuming enzymes were monitored using a coupled assay with Zwf and NADP^+ at 340 nm.
To implement the “molecular rheostat” module, GapDH enzyme was engineered that efficiently uses NADP^+. […] Although the cofactor specificity of GsGap has adjusted before by sequence-based design, the mutant only slightly preferred NADP^+ over NAD^+. To more strongly flip the cofactor specificity of GsGap the crystal structure was examined and basic residues introduced into the loop region proximate to the 2′OH of NAD′ that may help stabilize binding of a 2′ phosphate in NADP^+. A series of mutations were made altering residues D34, L35, and T36 of SEQ ID NO:6. The kinetics and specificity of the best enzyme, a D34A/L35R/T36K triple mutant (herein referred to as mGap), were obtained.

Residue numbers refer to the chain shown, from its start. Numbers in names are those of the source.

B1: G. stearothermophilus glyceraldehyde-3-phosphate dehydrogenase (GsGap, gapDH WT), wild type, SEQ ID NO:6 (Geobacillus stearothermophilus) (protein)
chain: MAVKVGINGFGRIGRNVFRAALKNPDIEVVAVNDLTDANTLAHLLKYDSVHGRLDAEVSVNGNNLVVNGKEIIVKAERDPENLAWGEIGVDIVVESTGRFTKREDAAKHLEAGAKKVIISAPAKNEDITIVMGVNQDKYDPKAHHVISNASCTTNCLAPFAKVLHEQFGIVRGMMTTVHSYTNDQRILDLPHKDLRRARAAAESIIPTTTGAAKAVALVLPELKGKLNGMAMRVPTPNVSVVDLVAELEKEVTVEEVNAALKAAAEGELKGILAYSEEPLVSRDYNGSTVSSTIDALSTMVIDGKMVKVVSWYDNETGYSHRVVDLAAYIASKGL
On to B1, for which the Km in data set [1] was determined as 1.5 ± 0.5 mM.

B2: G. stearothermophilus glyceraldehyde-3-phosphate dehydrogenase (GsGap) mutant mGapDH (mGap, gapDH M6), D34A/L35R/T36K relative to SEQ ID NO:6 (Geobacillus … (protein)
chain: B1 chain with D34A, L35R, T36K
Turning to B2, in data set [2], the Km stood at 0.3 ± 0.04 mM.

For orientation: Km means the concentration of substrate that gives half-maximal velocity.

Source of the values: patent USRE50957E1, “Molecular rheostat for cofactor balance” (The Regents of the University of California, priority 2016, dated 2026).
